Patent publication US20250243271A1 (ALCEA THERAPEUTICS, published 2025)

T1: Recombinant human Notch4 (human, UniProt Q99466 24-1447, limits assumed)
T1 construct: also called Notch4 analyte; Notch4 (antigen)
T1 sequence: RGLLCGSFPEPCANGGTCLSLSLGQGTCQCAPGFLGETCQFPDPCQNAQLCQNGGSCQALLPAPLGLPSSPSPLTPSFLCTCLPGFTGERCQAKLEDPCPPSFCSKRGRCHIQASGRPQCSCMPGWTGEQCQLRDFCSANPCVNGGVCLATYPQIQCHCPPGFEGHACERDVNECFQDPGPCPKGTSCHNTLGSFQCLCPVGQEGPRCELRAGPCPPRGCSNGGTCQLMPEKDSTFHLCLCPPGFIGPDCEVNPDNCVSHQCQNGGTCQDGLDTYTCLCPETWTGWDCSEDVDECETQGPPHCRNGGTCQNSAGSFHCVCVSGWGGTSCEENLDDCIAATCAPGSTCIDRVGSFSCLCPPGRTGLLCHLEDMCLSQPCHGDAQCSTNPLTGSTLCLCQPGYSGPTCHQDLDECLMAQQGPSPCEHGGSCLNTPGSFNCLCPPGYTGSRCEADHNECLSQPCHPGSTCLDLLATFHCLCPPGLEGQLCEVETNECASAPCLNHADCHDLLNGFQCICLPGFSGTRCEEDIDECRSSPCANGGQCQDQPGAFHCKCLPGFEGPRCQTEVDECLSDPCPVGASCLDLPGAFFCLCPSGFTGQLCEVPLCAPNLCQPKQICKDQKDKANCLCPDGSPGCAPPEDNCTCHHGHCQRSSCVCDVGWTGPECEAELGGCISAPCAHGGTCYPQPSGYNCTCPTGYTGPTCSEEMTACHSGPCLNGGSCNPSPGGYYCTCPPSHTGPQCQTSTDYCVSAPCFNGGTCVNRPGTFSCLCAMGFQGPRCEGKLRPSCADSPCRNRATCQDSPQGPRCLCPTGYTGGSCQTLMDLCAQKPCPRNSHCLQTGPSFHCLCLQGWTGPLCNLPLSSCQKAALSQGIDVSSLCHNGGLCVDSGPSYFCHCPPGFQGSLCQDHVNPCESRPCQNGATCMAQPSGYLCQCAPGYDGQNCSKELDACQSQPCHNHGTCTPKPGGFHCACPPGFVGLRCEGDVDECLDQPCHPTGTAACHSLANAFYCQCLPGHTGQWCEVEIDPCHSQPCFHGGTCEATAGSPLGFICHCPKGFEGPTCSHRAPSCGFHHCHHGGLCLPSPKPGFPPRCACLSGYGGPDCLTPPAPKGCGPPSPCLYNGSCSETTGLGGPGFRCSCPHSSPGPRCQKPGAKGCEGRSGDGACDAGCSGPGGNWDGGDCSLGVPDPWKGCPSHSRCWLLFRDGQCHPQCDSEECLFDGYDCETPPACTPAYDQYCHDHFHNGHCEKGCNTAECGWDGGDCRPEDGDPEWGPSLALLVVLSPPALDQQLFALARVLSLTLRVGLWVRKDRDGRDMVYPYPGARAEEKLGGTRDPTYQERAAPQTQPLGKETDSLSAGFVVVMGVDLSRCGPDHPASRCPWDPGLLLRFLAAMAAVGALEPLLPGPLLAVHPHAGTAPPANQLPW

B1: G05-Lib3-Pl1 (antibody, V domains shown)
VH: EVQLVESGGGLVQPGGSLRLSCAASGFTFSDYSMSWVRQAPGKGLELVASISESGHDTYYPDSVKGRFTISRDNAKNSLYLQMNSLRAEDTAVYYCARGIAVAGTRAFDIWGQGTMVTVSS
VL: DIVMTQSPLSLPVTPGEPASISCRSSQSLLYSTGYNYLHWYLQKPGQSPQLLIYMGSYRASGVPDRFSGSGSGTDFTLKISRVEAEDVGVYYCMQALPTPPITFGGGTKVEIK
notes: Tested as an antibody captured by anti-human IgG Fc
B2: B07-Lib3-Pl1 (antibody, V domains shown)
VH: EVQLVESGGGLVQPGGSLRLSCAASGFTLDNYVMSWVRQAPGKGLELVASISGSSADTYYPDSVKGRFTISRDNAKNSLYLQMNSLRAEDTAVYYCAKGIAAGYGMDVWGQGTTVTVSS
VL: DIVMTQSPLSLPVTPGEPASISCRSSQSLLHSSGYTYLHWYLQKPGQSPQLLIYATSYRAPGVPDRFSGSGSGTDFTLKISRVEAEDVGVYYCMQATHPYTFGGGTKVEIK
notes: as for B1
B3: G04-Lib6-Pl2 (antibody, V domains shown)
VH: EVQLVQSGAEVKKPGASVKVSCKASGYSFTKSGIHWVRQAPGQGLEWMGWINPRTGNINYAQKLQGRGTMTTDPSTSTAYMELRSLRSDDTAVYYCARTHLGSSSSPPGYYYGMDVWGQGTTVTVSS
VL: ESALTQPASVSGSPGQSITISCTGTNIGAKAVSWYQQHPGKAPKLMIYAENKRPSGVSNRFSGSKSGNTASLTISGLQAEDEADYYCQAWDNRAILFGGGTKLTVL
notes: as for B1
B4: iggrefmat 1-12 (antibody, V domains shown)
VH: QVQLVQSGAEVKKPGASVKVSCKVSGYPFSNYAIHWVRQAPGKGLEWMGGISPYTGKTIYAQKFQGRVTMTEDTSTDTAYMELSSLKSEDTAVYYCAFSRYYYDSSGYHGDAFDIWGQGTMVTVSS
VL: DIQMTQSPSSVSASVGDRVTITCRASQGISNHLAWYQQKPGKAPKLLIYDASNRATGVPSRFSGSGSGTDFTLTISSLQPEDFANYYCQQSFTIPSFGGGTKVEIK
notes: Tested as an antibody captured by anti-human IgG Fc; also called C02-Lib1_Pl1
B5: iggrefmat 1-34 (antibody, V domains shown)
VH: QVQLVQSGAEVKKPGASVKVSCKVSGYTLTKSSIHWVRQAPGKGLEWMGGINPSAGTRIYAQKFQGRVTMTEDTSTDTAYMELSSLKSEDTAVYYCVRGSNPNVWGKGTTVTVSS
VL: DIQMTQSPSSVSASVGDRVTITCRASQTIGNYLAWYQQKPGKAPKLLIYKASTLASGVPSRFSGSGSGTDFTLTISSLQPEDFANYYCQQYNFYPRTFGGGTKVEIK
notes: as for B1
B6: iggrefmat 2-16 (antibody, V domains shown)
VH: QVQLVESGGGLVQPGGSLRLSCAASGLTFSGSAMSWVRQAPGKGLELVASITGSGTRTYYPDSVKGRFTISRDNAKNSLYLQMNSLRAEDTAVYYCARGLHAFDIWGQGTMVTVSS
VL: DIVMTQSPLSLPVTPGEPASISCRSSQSLLSSYGYHNLHWYLQKPGQSPQLLIYMGYNRASGVPDRFSGSGSGTDFTLKISRVEAEDVGVYYCMQGMHLPITFGGGTKVEIK
notes: Tested as an antibody captured by anti-human IgG Fc; also called C07-Lib3-Pl1
B7: C03-Lib1-Pl1 (antibody, V domains shown)
VH: QVQLVQSGAEVKKPGASVKVSCKVSGYTFTDLPIHWVRQAPGKGLEWMGGINPHSGDAIYAQKFQGRVTMTEDTSTDTAYMELSSLKSEDTAVYYCTTVIAVAGSNDSRPCGRSYLCVLDYWGQGTLVTVSS
VL: DIQMTQSPSSVSASVGDRVTITCNASQGIGHSLAWYQQKPGKAPKLLIYGATSRATGVPSRFSGSGSGTDFTLTISSLQPEDFANYYCLQDYIYPFTFGGGTKVEIK
notes: as for B1
B8: iggrefmat 2-12 (antibody, V domains shown)
VH: EVQLVESGGGLVQPGGSLRLSCAASGFSFGTYSMSWVRQAPGKGLELVASIDTAGTPYYPDSVKGRFTISRDNAKNSLYLQMNSLRAEDTAVYYCARSYSGYDPYDAFDIWGQGTMVTVSS
VL: DIVMTQSPLSLPVTPGEPASISCRSSRSLVHGSGDNYLHWYLQKPGQSPQLLIYDASNRFSGVPDRFSGSGSGTDFTLKISRVEAEDVGVYYCAQTLQIPLTFGGGTKVEIK
notes: Tested as an antibody captured by anti-human IgG Fc; also called E08-Lib3-Pl1
B9: iggrefmat 3-4 (antibody, V domains shown)
VH: EVQLVQSGAEVKKPGASVKVSCKASGYTFSDHYISWVRQAPGQGLEWMGWMNPTSGHTNYAQKLQGRGTMTTDPSTSTAYMELRSLRSDDTAVYYCARVSGRWLPAVDGHYYYYYGMDVWGQGTTVTVSS
VL: ESALTQPASVSGSPGQSITISCTGTGSNIGAGYGVSWYQQHPGKAPKLMIYANINRPPGVSNRFSGSKSGNTASLTISGLQAEDEADYYCSSYTSSSWMFGGGTKLTVL
notes: Tested as an antibody captured by anti-human IgG Fc; also called D11-Lib4-Pl1
B10: iggrefmat 3-11 (antibody, V domains shown)
VH: EVQLVQSGAEVKKPGASVKVSCKASGYTFATYPISWVRQAPGQGLEWMGGMNPTTGDTIYAQKLQGRGTMTTDPSTSTAYMELRSLRSDDTAVYYCARGDRAWFDPWGQGTLVTVSS
VL: B9 VL
notes: Tested as an antibody captured by anti-human IgG Fc; also called H03-Lib6-Pl2
B11: iggrefmat 6-28 (antibody, V domains shown)
VH: EVQLVESGGGLVQPGRSLRLSCAASGFSFSDYHMHWVRQAPGKGLEWVGAISGSAYTTDYADSVEGRFTISRDNAKNSLYLQMNSLRAEDTAVYYCARDDYNKDGFDPWGQGTLVTVSS
VL: DIQMTQSPSSLSASVGDRVTITCRASQSIYSYLAWYQQKPGKAPKLLIYDASRLQSGVPSRFSGSGSGTDFTLTISSLQPEDVATYYCQQGYRSPITFGGGTKVEIK
notes: Tested as an antibody captured by anti-human IgG Fc; also called E03-Lib8H1N4
B12: iggrefmat 6-16 (antibody, V domains shown)
VH: EVQLVESGGGLVQPGRSLRLSCAASEFSFSRFDMHWVRQAPGKGLEWVSAISSSGSYKDYADSVEGRFTISRDNAKNSLYLQMNSLRAEDTAVYYCAREAYGDYGKPFDYWGQGTLVTVSS
VL: DIQMTQSPSSLSASVGDRVTITCRASQSISRNLAWYQQKPGKAPKLLIYAGSTLQRGVPSRFSGSGSGTDFTLTISSLQPEDVATYYCLQANMYPLTFGGGTKV
notes: as for B1
B13: iggrefmat 3-13 (antibody, V domains shown)
VH: EVQLVQSGAEVKKPGASVKVSCKASGFPFSTSAISWVRQAPGQGLEWMGWMDPATGQTNYAQKLQGRGTMTTDPSTSTAYMELRSLRSDDTAVYYCARALRYCSGGRCQGFHGMDVWGQGTTVTVSS
VL: ESALTQPASVSGSPGQSITISCTGTNIAAKSVSWYQQHPGKAPKLMIYANINRPPGVSNRFSGSKSGNTASLTISGLQAEDEADYYCSSYTSSSWMFGGGTKLTVL
notes: Tested as an antibody captured by anti-human IgG Fc; also called C11-Lib4-Pl1
B14: C08-Lib3-Pl1 (antibody, V domains shown)
VH: EVQLVESGGGLVQPGGSLRLSCAASGLPFSSYGMSWVRQAPGKGLELVASIGTSGTRTYYPDSVKGRFTISRDNAKNSLYLQMNSLRAEDTAVYYCARLGEGSGWSYFDYWGQGTLVTVSS
VL: DIVMTQSPLSLPVTPGEPASISCRSSQSLLHSTGYNYLHWYLQKPGQSPQLLIYSGSYRASGVPDRFSGSGSGTDFTLKISRVEAEDVGVYYCQQGYSTPHTFGGGTKVEIK
notes: as for B1
B15: iggrefmat 1-29 (antibody, V domains shown)
VH: QVQLVQSGAEVKKPGASVKVSCKVSRGTFSTYAIHWVRQAPGKGLEWMGGINAATGYTIYAQKFQGRVTMTEDTSTDTAYMELSSLKSEDTAVYYCVRSVGSIEYWGQGTLVTVSS
VL: DIQMTQSPSSVSASVGDRVTITCRASQGISNHLAWYQQKPGKAPKLLIYGASSRQSGVPSRFSGSGSGTDFTLTISSLQPEDFANYYCLHDRYPYTFGGGTKVEIK
notes: Tested as an antibody captured by anti-human IgG Fc; also called C01-Lib1-Pl1

target: T1, Recombinant human Notch4; assay: SPR, antibody captured by anti-human IgG Fc on HC30M chip, Notch4 as analyte
Protocol: Binding kinetics measurements. Following expression and purification, clones were characterized using surface plasmon resonance (SPR) to determine binding kinetics and epitope binding activity. HC30M chips (polycarboxylate hydrogel surfaces having medium charge density and 30 nm coating thickness) were coated with anti-human Fc antibodies (unlabeled goat anti-human IgG Fc from Southern Biotech) to capture the candidate antibodies. Candidate antibodies were diluted to 10 μg/mL in HEPES-buffered saline Tris-EDTA (HBSTE)) and exposed to the surfaces for 15 minutes. After stabilizing baseline using HBSTE, Notch4 analytes were injected sequentially from a lowest concentration of 0.41 nM to a highest concentration of 300 nM. (Notch4 was diluted in HBSTE+0.5 mg/mL bovine serum albumin (BSA) to obtain a series of 3-fold dilutions.) To assess specificity, experiments were also run using Notch2 as an analyte in a single injection at 100 nM in HBSTE+0.5 mg/mL.

**Q.** How did the Kd turn out when B1 was run?
**A.** The Kd was 0.89 nM.

**Q.** B2 was tested. Which Kd did it give?
**A.** Its Kd is 5 nM.

**Q.** B3 was tested. Which Kd did it give?
**A.** Its Kd is 1.6 nM.

**Q.** Which Kd does the source give for B4 here?
**A.** The Kd was 1.5 nM.

**Q.** With B5 as the binder, how does the Kd read?
**A.** The Kd was 1.5 nM.

**Q.** B6 was tested. Which Kd did it give?
**A.** The Kd was 1.5 nM.

**Q.** B7 was tested. Which Kd did it give?
**A.** Its Kd is 5.3 nM.

**Q.** For B8, which Kd is on record?
**A.** Its Kd is 5.6 nM.

**Q.** For B9, which Kd is on record?
**A.** The Kd was 2.6 nM.

**Q.** With B10 as the binder, how does the Kd read?
**A.** Its Kd is 0.92 nM.

**Q.** For B11, which Kd is on record?
**A.** The Kd was 3.4 nM.

**Q.** How did the Kd turn out when B12 was run?
**A.** Its Kd is 0.38 nM.

**Q.** How did the Kd turn out when B13 was run?
**A.** Its Kd is 2.5 nM.

**Q.** Which Kd does the source give for B14 here?
**A.** Its Kd is 0.41 nM.

**Q.** For B15, which Kd is on record?
**A.** Its Kd is 6.1 nM.
